The record followed here is paper PMC4866044.

Test [1] deals with Cy3-labelled Crm1 (UniProt O14980). The experiment in a line: MST. The note with it: Cy3-labelled Crm1 20 nM; RanBP2-3/4 fragments 0.3 nM-10 μM; no RanQ69L; laser-power 70%, LED-power 20%; parent: est. 0.94; read off a plot.
Test [2] has as its target HA-RanBP2 mFG1/2, full-length (human) (UniProt P49792). The experiment in a line: co-IP; αHA-agarose immunoprecipitation from nocodazole-arrested HEK293T cells depleted of endogenous RanBP2 by siRNA and transfected with HA-RanBP2 constructs; Crm1 blot normalised to HA-RanBP2, three biological replicates.

Turning to “RanBP2-3/4-His (aa 2,304–3,062), free fragment (from UniProt P49792) mFG12 (= mFG1/2, 11 F to S mutations in both FG-repeat patches; positions not printed)”, in test [1], the other: fraction of bound Crm1-Cy3 at the highest RanBP2-3/4 concentration (10,000 nM) came to 0.04. The substance “Crm1, endogenous (HEK293T) (from UniProt O14980 1-1071) (natural protein)” had a reduction of co-immunoprecipitated Crm1 against wild-type HA-RanBP2 in test [2] of 40%.
